Experimental data reported in patent US20150218534A1, “MODIFIED DNA POLYMERASE” (TOYOBO CO., LTD., priority 2012, published 2015).
Residue numbers refer to the chain shown, from its start. In names and notes the source's numbering stands.

B1: KOD N210D: modified KOD DNA polymerase with N210D, deficient in 3′-5′ exonuclease activity (exo(−)) (protein, listed as Thermococcus kodakaraensis)
chain: MILDTDYITEDGKPVIRIFKKENGEFKIEYDRTFEPYFYALLKDDSAIEEVKKITAERHGTVVTVKRVEKVQKKFLGRPVEVWKLYFTHPQDVPAIRDKIREHPAVIDIYEYDIPFAKRYLIDKGLVPMEGDEELKMLAFDIETLYHEGEEFAEGPILMISYADEEGARVITWKNVDLPYVDVVSTEREMIKRFLRVVKEKDPDVLITYDGDNFDFAYLKKRCEKLGINFALGRDGSEPKIQRMGDRFAVEVKGRIHFDLYPVIRRTINLPTYTLEAVYEAVFGQPKEKVYAEEITTAWETGENLERVARYSMEDAKVTYELGKEFLPMEAQLSRLIGQSLWDVSRSSTGNLVEWFLLRKAYERNELAPNKPDEKELARRRQSYEGGYVKEPERGLWENIVYLDFRSLYPSIIITHNVSPDTLNREGCKEYDVAPQVGHRFCKDFPGFIPSLLGDLLEERQKIKKKMKATIDPIERKLLDYRQRAIKILANSYYGYYGYARARWYCKECAESVTAWGREYITMTIKEIEEKYGFKVIYSDTDGFFATIPGADAETVKKKAMEFLKYINAKLPGALELEYEGFYKRGFFVTKKKYAVIDEEGKITTRGLEIVRRDWSEIAKETQARVLEALLKDGDVEKAVRIVKEVTEKLSKYEVPPEKLVIHEQITRDLKDYKATGPHVAVAKRLAARGVKIRPGTVISYIVLKGSGRIGDRAIPFDEFDPTKHKYDAEYYIENQVLPAVERILRAFGYRKEDLRYQKTRQVGLSAWLKPKGT
B2: KOD I142R: modified KOD DNA polymerase with I142R, deficient in 3′-5′ exonuclease activity (exo(−)) (protein, listed as Thermococcus kodakaraensis)
chain: B1 chain with I142R, D210N
B3: KOD D141A/E143A: modified KOD DNA polymerase with D141A and E143A, deficient in 3′-5′ exonuclease activity (exo(−)) (protein, listed as Thermococcus kodakaraensis)
chain: B1 chain with D141A, E143A, D210N
B4: Pfu Y7A/P36H: modified Pfu DNA polymerase with Y7A and P36H (protein, UniProt P61875 1-775, looked up, variant Y7A P36H)
DNA polymerase: MILDVDAITEEGKPVIRLFKKENGKFKIEHDRTFRHYIYALLRDDSKIEEVKKITGERHGKIVRIVDVEKVEKKFLGKPITVWKLYLEHPQDVPTIREKVREHPAVVDIFEYDIPFAKRYLIDKGLIPMEGEEELKILAFDIETLYHEGEEFGKGPIIMISYADENEAKVITWKNIDLPYVEVVSSEREMIKRFLRIIREKDPDIIVTYNGDSFDFPYLAKRAEKLGIKLTIGRDGSEPKMQRIGDMTAVEVKGRIHFDLYHVITRTINLPTYTLEAVYEAIFGKPKEKVYADEIAKAWESGENLERVAKYSMEDAKATYELGKEFLPMEIQLSRLVGQPLWDVSRSSTGNLVEWFLLRKAYERNEVAPNKPSEEEYQRRLRESYTGGFVKEPEKGLWENIVYLDFRALYPSIIITHNVSPDTLNLEGCKNYDIAPQVGHKFCKDIPGFIPSLLGHLLEERQKIKTKMKETQDPIEKILLDYRQKAIKLLANSFYGYYGYAKARWYCKECAESVTAWGRKYIELVWKELEEKFGFKVLYIDTDGLYATIPGGESEEIKKKALEFVKYINSKLPGLLELEYEGFYKRGFFVTKKRYAVIDEEGKVITRGLEIVRRDWSEIAKETQARVLETILKHGDVEEAVRIVKEVIQKLANYEIPPEKLAIYEQITRPLHEYKAIGPHVAVAKKLAAKGVKIKPGMVIGYIVLRGDGPISNRAILAEEYDPKKHKYDAEYYIENQVLPAVLRILEGFGYRKEDLRYQKTRQVGLTSWLNIKKS

Columns and labels:
[1] = test system: human genomic DNA (about 1.3 kb) with dUTP added; assay: Evaluation of uracil (dUTP) sensitivity by PCR with dUTP added to the reaction; assay type: biochemical; conditions: dUTP added to PCR (FIGS. 3 and 4)
Description: The uracil sensitivity of the modified DNA polymerase of the present invention can be evaluated by PCR. For example, a dUTP solution is added at a final concentration of 0.5 μM to 200 μM to a common PCR reaction solution containing DNA as a template, a buffer, magnesium, dNTPs, primers, and a DNA polymerase to be evaluated, and thermal cycling is performed. After the reaction, the presence or absence of PCR products is confirmed by ethidium bromide-stained agarose electrophoresis, and the uracil sensitivity can be evaluated by the concentration of accepted dUTP. With a DNA polymerase having high uracil sensitivity, the extension reaction is inhibited by the addition of a small amount of dUTP, and PCR products cannot be confirmed. With a DNA polymerase having low uracil sensitivity, gene amplification by PCR can be confirmed without problem, even if a high concentration of dUTP is added. The modified DNA polymerase with low uracil sensitivity in the present invention refers to a DNA polymerase such that when optimum thermal cycling is performed using any primers and DNA as a template in a reaction buffer optimum for the enzyme, even if a high concentration of dUTP is added, an extension reaction is not inhibited and PCR products can be confirmed, compared to wild-type DNA polymerase, which has no mutation.
More specifically, 10× PCR buffer included in KOD-Plus-Ver. 2 (produced by Toyobo Co. Ltd.) or 10× PCR buffer included in Pfu DNA Polymerase (produced by Agilent) is used; dUTP (produced by Roche) is added to 50 μl of individual reaction solutions containing 1× PCR buffer, 1.5 mM MgSO4, dNTPs (dATP, dTTP, dCTP, and dGTP) in an amount of 0.2 mM, primers represented by SEQ ID NOs: 25 and 26 in an amount of 15 pmol for amplifying about 1.3 kb, 10 ng of human genomic DNA (produced by Roche), and 1 U of each respective enzyme, to final concentrations of 0.5, 5, 50, 100, and 200 μM. PCR is performed using a GeneAmp PCR system 9700 (Applied Biosystems) on the following schedule; preliminary reaction at 94° C. for 30 seconds, followed by 30 cycles, each cycle consisting of 98° C. for 10 seconds, 65° C. for 30 seconds, and 68° C. for 1 minute and 30 seconds. After the completion of each individual reaction, 5 μl of each of the resulting reaction solutions is subjected to agarose electrophoresis, followed by ethidium bromide staining. The uracil sensitivity can be evaluated by confirming amplified DNA fragments of about 1.3 kb under ultraviolet irradiation.
PCR was performed by the following method to evaluate uracil sensitivity. For PCR, components included in KOD-Plus-Ver. 2 (produced by Toyobo Co. Ltd.) were used. dUTP (produced by Roche) was added to 50 μl of individual reaction solutions containing 1× PCR buffer, 1.5 mM MgSO4, dNTPs (dATP, dTTP, dCTP, dGTP) in an amount of 0.2 mM, primers represented by SEQ ID NOs: 25 and 26 in an amount of 15 pmol for amplifying about 1.3 kb, 10 ng of human genomic DNA (produced by Roche), and 1 U of each respective enzyme, to final concentrations of 0.5, 5, 50, 100, and 200 μM. PCR was performed using a GeneAmp PCR system 9700 (produced by Applied Biosystems) on the following schedule: preliminary reaction at 94° C. for 30 seconds, followed by 30 cycles, each cycle consisting of 98° C. for 10 seconds, 65° C. for 30 seconds, and 68° C. for 1 minute and 30 seconds. After the completion of each individual reaction, 5 μl of each of the resulting reaction solutions was subjected to agarose electrophoresis, followed by ethidium bromide staining. Under ultraviolet irradiation, amplified DNA fragments of about 1.3 kb were confirmed. FIGS. 3, 4, 7, and 8 show the results.

[2] = test system: 1.3 kbp, 2.8 kbp, and 3.6 kbp of human β-globin; assay: Amplification of long-chain DNA in PCR using dUTP; assay type: biochemical; conditions: 1.3, 2.8, 3.6 kbp; 100% dUTP (FIGS. 9 and 10)
Description: Amplification of 1.3 kbp, 2.8 kbp, and 3.6 kbp of human β-globin in PCR using dUTP was compared. For amplification, each enzyme was used after being mixed with 1 μg of a KOD antibody per U of the enzyme. For PCR, components included in KOD-Plus-Ver. 2 (produced by Toyobo Co. Ltd.) were used. 50 μl of individual reaction solutions containing 1× PCR buffer, 1.5 mM MgSO4, dNTPs (dATP, dUTP, dCTP, dGTP) in an amount of 2 mM in which dTTP was replaced by dUTP, primers in an amount of 15 pmol (SEQ ID NOs: 25 and 26 for amplification of 1.3 kbp; SEQ ID NOs: 26 and 29 for amplification of 2.8 kbp; SEQ ID NOs: 30 and 31 for amplification of 3.6 kbp), 10 ng of human genomic DNA (produced by Roche), and 1 U of each respective enzyme mixed with the antibody were used. PCR was performed using a GeneAmp PCR system 9700 (Applied Biosystems) on the following schedule: preliminary reaction at 94° C. for 2 minutes, followed by 35 cycles, each cycle consisting of 98° C. for 10 seconds, 65° C. for 30 seconds, and 68° C. for about 1 minute per kbp (1 minute and 30 seconds for amplification of 1.3 kbp; 3 minutes for amplification of 2.8 kbp; 4 minutes for amplification of 3.6 kbp). As a control, amplification was also performed using Taq DNA polymerase. Taq DNA polymerase produced by Toyobo Co. Ltd. mixed with Anti-Taq High (produced by Toyobo Co. Ltd.) was used. 50 μl of a reaction solution containing 1× buffer included in Blend Taq, dNTPs (dATP, dUTP, dCTP, dGTP) in an amount of 2 mM in which dTTP was replaced by dUTP, primers in an amount of 10 pmol the same as the above), 10 ng of human genomic DNA (produced by Roche), and 2.5 U of the enzyme mixed with the antibody was used. PCR was performed using a GeneAmp PCR system 9700 (produced by Applied Biosystems) on the following schedule: preliminary reaction at 94° C. for 2 minutes, followed by 35 cycles, each cycle consisting of 94° C. for 30 seconds, 65° C. for 30 seconds, and 68° C. for about 1 minute per kbp (1 minute and 30 seconds for amplification of 1.3 kbp; 3 minutes for amplification of 2.8 kbp; 4 minutes for amplification of 3.6 kbp). After the completion of each individual reaction, 5 μl of each of the resulting reaction solutions was subjected to agarose electrophoresis, followed by ethidium bromide staining, and the amount of amplified DNA fragments was confirmed under ultraviolet irradiation. FIGS. 9 and 10 show the results.

Molecule | sensitivity to dUTP / amount of amplification, comparison with single mutants or wild type [1] | amount of amplification of long-chain DNA with dUTP [2]
B1 | less sensitive to dUTP than the wild-type DNA polymerase | –
B2 | less sensitive to dUTP than the wild-type DNA polymerase | –
B3 | less sensitive to dUTP than the wild-type DNA polymerase | –
B4 | provided a larger amount of amplification | provided larger amounts of amplification
